Twelve molecules from patent publication US20080292639A1 (Amgen, published 2008) can be followed below.

Values joined by “and” are separate entries in the source; they are usually repeats but may differ in a detail not shown here. Equal entries are not always repeated.

In one assay the target is T1, human Aβ40 fibrils (human, UniProt P05067 672-711).
T1 construct: domain: Aβ40; Aggregated (fibrillar) form; also called Fibrillar Aβ40; Aβ40 aggregate
The experiment in a line: BIAcore, antibody injected over immobilized Aβ fibrils. The procedure: (§1) Preparation of BIacore Chip Surfaces: Immobilization of Proteins to a Biacore sensor chip (CM5) was performed according to manufacturer's instructions. Briefly, carboxyl groups on the sensor chip surfaces were activated by injecting 60 μL of a mixture containing 0.2 M N-ethyl-N′-(dimethylaminopropyl)carbodiimide (EDC) and 0.05 M N-hydroxysuccinimide (NHS). Specific surfaces were obtained by injecting rProtein G (Pierce), goat anti-mouse Fc (Jackson Immuno Research Lab) or Aβ aggregates diluted in 10 mM acetate, pH 4.0 at concentrations between 5 and 20 μg/mL. Excess reactive groups on the surfaces were deactivated by injecting 60 μL of 1 M ethanolamine. Final immobilized levels were about 10000 resonance units (RU) for the Protein G and anti-mouse Fc surfaces, and 400 RU for the Aβ aggregates surfaces. A blank, mock-coupled reference surface was also prepared on the sensor chips for background subtraction.
(§2) Kinetic analysis of antibodies binding to immobilized Aβ aggregates: Antibodies were diluted in PBS+0.005% P-20+0.1 mg/mL BSA from 100 nM to 0.2 nM. The samples at each concentration were injected over the immobilized Aβ aggregate surfaces, as well as over a blank surface for background subtraction. After a 15-minute dissociation, the surface was regenerated by injecting 8 mM glycine, pH 3.0, and 1 M NaCl for 30 seconds.
(§3) The kinetic analysis assay as described above was repeated using various humanized versions of anti-Aβ antibodies (2.1 chimera, 2.1 B, 2.1 C, 2.1 D, 2.1 E, 2.1 F, 2.1 G, 2.1 E.K5, 2.1E.K5R, 2.1 G.K5, 2.1 G.K5R, 2.1 I.K5R and 2.1 L).
In general terms: In SPR one partner is held on a chip, and binding of the other changes the refractive index at the surface.

The target of the next assay is T2, human Aβ42 fibrils (human, UniProt P05067 672-713).
T2 construct: domain: Aβ42; Aggregated (fibrillar) form; also called Fibrillar Aβ42; Aβ42 aggregate
T2 sequence (P05067 672-713 limits assumed): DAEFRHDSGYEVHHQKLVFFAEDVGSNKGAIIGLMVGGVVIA
The assay is described as above. As to the method:
as §1, §2, §3

Assay [1] has as its target native amyloid plaques in unfixed brain sections of Tg2576 APP transgenic mice (human, UniProt P05067 672-713, limits assumed). The experiment in a line: cell-based or functional assay.
Assay [2] has as its target amyloid plaques in unfixed brain sections of a human AD patient (human, UniProt P05067 672-713). The experiment in a line: cell-based or functional assay.

Sequence of native amyloid plaques in unfixed brain sections of Tg2576 APP transgenic mice (P05067 672-713 limits assumed): as above
T1 sequence (P05067 672-711 limits assumed): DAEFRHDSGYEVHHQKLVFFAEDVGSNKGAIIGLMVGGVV
Sequence of amyloid plaques in unfixed brain sections of a human AD patient (P05067 672-713): as the sequence (P05067 672-713 limits assumed) above

B1: 2.1 D (antibody, human IgG1, kappa)
heavy: not shown
light: DVVMTQSPLSLPVTLGQPASISCRSSQSIVHSNGNTYLEWYLQRPGQSPQLLIYKVSNRFSGVPDRFSGSGSGTDFTLKISRVEAEDVGVYYCFQGSHVPLTFGGGTKVEIKRTVAAPSVFIFPPSDEQLKSGTASVVCLLNNFYPREAKVQWKVDNALQSGNSQESVTEQDSKDSTYSLSSTLTLSKADYEKHKVYACEVTHQGLSSPVTKSFNRGEC
notes: Humanized IgG; also called 2.1 D (K5R)
As a reminder, the koff is the first-order rate constant of dissociation. A low value points to slow dissociation. On to B1, for which the koff was determined as 0.00012 s⁻¹ with human Aβ40 fibrils and 5.5e-05 s⁻¹ with human Aβ42 fibrils.

B2: 2.1 B (antibody, human IgG1, kappa, V domains shown)
VH: QVTLRESGPALVKPTQTLTLTCTFSGFSLRTSGMGVGWIRQPPGKALEWLAHIWWDDDKSYNPSLKSQLTISKDTSKNQVVLTMTNMDPVDTATYYCARRNYYYDDYFAYWGQGTLVTVSS
VL: DVVMTQSPLSLPVTLGQPASISCRSSQSIVHSNGNTYLEWFVQRPGQSPRVLIYKVSNRFSGVPDRFSGSGSGTDFTLKISRVEAEDVGVYYCFQGSHVPLTFGGGTKLEIKR
notes: Humanized IgG; also called 2.1 B (K5R)
For the molecule B2, the off-rate (koff) with human Aβ40 fibrils was 0.00024 s⁻¹; with human Aβ42 fibrils it was 0.00019 s⁻¹.

B3: 2.1 G (also described as 2.1 GK5R) (antibody, human IgG1, kappa)
heavy: not shown
light: DIVMTQSPLSLPVTPGEPASISCRSSQSIVHSNGNTYLEWYLQKPGQSPRLLIYKVSNRFSGVPDRFSGSGSGTDFTLKISRVEAEDVGVYYCFQGSHVPLTFGGGTKVEIKRTVAAPSVFIFPPSDEQLKSGTASVVCLLNNFYPREAKVQWKVDNALQSGNSQESVTEQDSKDSTYSLSSTLTLSKADYEKHKVYACEVTHQGLSSPVTKSFNRGEC
notes: Humanized IgG
On to B3, for which the koff is 0.00011 s⁻¹ and < 5e-05 s⁻¹ with human Aβ40 fibrils; < 5e-05 s⁻¹ in the assay with human Aβ42 fibrils. Also, in assay [1], the “EC50 (µg/ml), ex vivo phagocytosis” value came to 0.94 µg/mL.

B4: 2.1 E (antibody, human IgG1, kappa)
heavy: not shown
light: DVVMTQSPLSLPVTLGQPASISCRSSQSIVHSNGNTYLEWYLQKPGQSPRLLIYKVSNRFSGVPDRFSGSGSGTDFTLKISRVEAEDVGVYYCFQGSHVPLTFGGGTKVEIKRTVAAPSVFIFPPSDEQLKSGTASVVCLLNNFYPREAKVQWKVDNALQSGNSQESVTEQDSKDSTYSLSSTLTLSKADYEKHKVYACEVTHQGLSSPVTKSFNRGEC
notes: Humanized IgG; also called 2.1 E (K5R); 2.1E.K5R
Take B4: the koff is 0.00011 s⁻¹ and < 5e-05 s⁻¹ with human Aβ40 fibrils; < 5e-05 s⁻¹ with human Aβ42 fibrils. The “EC50 (µg/ml), ex vivo phagocytosis” value in assay [1] was 2.23 µg/mL.

B5: 2.1 F (antibody, human IgG1, kappa)
heavy: not shown
light: DIVMTQSPLSLPVTPGEPASISCRSSQSIVHSNGNTYLEWYLQRPGQSPQLLIYKVSNRFSGVPDRFSGSGSGTDFTLKISRVEAEDVGVYYCFQGSHVPLTFGGGTKVEIKRTVAAPSVFIFPPSDEQLKSGTASVVCLLNNFYPREAKVQWKVDNALQSGNSQESVTEQDSKDSTYSLSSTLTLSKADYEKHKVYACEVTHQGLSSPVTKSFNRGEC
notes: Humanized IgG; also called 2.1 F (K5R)
B5: the koff with human Aβ40 fibrils amounted to 0.00015 s⁻¹; with human Aβ42 fibrils, 0.00012 s⁻¹.

B6: 2.1 I (also described as 2.1 I K5R) (antibody, human IgG1, kappa, V domains shown)
VH: QVTLRESGPALVKPTQTLTLTCTFSGFSLRTSGMGVGWIRQPPGKALEWLAHIWWDDDKSYNPSLKSQLTISKDTSKNQVVLTMTNMDPVDTATYYCARRNYYYDDYFAYWGQGTLVTVSS
VL: DIVMTQSPLSLPVTPGEPASISCRSSQSIVHSNGNTYLEWYLQKPGQSPQLLIYKVSNRFSGVPDRFSGSGSGTDFTLKISRVEAEDVGVYYCFQGSHVPLTFGGGTKVEIKR
notes: Humanized IgG
For the molecule B6, the koff in the assay with human Aβ40 fibrils and with human Aβ42 fibrils was < 5e-05 s⁻¹ throughout. In addition, in assay [1], the “EC50 (µg/ml), ex vivo phagocytosis” value is 0.69 µg/mL.

B7: 2.1 C (antibody, human IgG1, kappa)
heavy: not shown
light: DVVMTQSPLSLPVTLGQPASISCRSSQSIVHSNGNTYLEWYLQRPGQSPQLLIYKVSNRFSGVPDRFSGSGSGTDFTLKISRVEAEDVGVYYCFQGSHVPLTFGQGTKLEIKRTVAAPSVFIFPPSDEQLKSGTASVVCLLNNFYPREAKVQWKVDNALQSGNSQESVTEQDSKDSTYSLSSTLTLSKADYEKHKVYACEVTHQGLSSPVTKSFNRGEC
notes: Humanized IgG; also called 2.1 C (K5R)
With B7, the koff with human Aβ40 fibrils is 0.00015 s⁻¹; with human Aβ42 fibrils it was < 5e-05 s⁻¹.

B8: 2.1 L (antibody, human IgG1, kappa)
heavy: not shown
light: DVLMTQSPLSLPVTLGQPASISCRSSQSIVHSNGNTYLEWYLQRPGQSPKLLIYKVSNRFSGVPDRFSGSGSGTDFTLKISRVEAEDVGVYYCFQGSHVPLTFGAGTKLEIKRTVAAPSVFIFPPSDEQLKSGTASVVCLLNNFYPREAKVQWKVDNALQSGNSQESVTEQDSKDSTYSLSSTLTLSKADYEKHKVYACEVTHQGLSSPVTKSFNRGEC
notes: Humanized IgG
For B8, the koff with human Aβ40 fibrils and with human Aβ42 fibrils was < 5e-05 s⁻¹ throughout. Moreover, in assay [1], the “EC50 (µg/ml), ex vivo phagocytosis” value is 0.82 µg/mL and 0.73 µg/mL.

B9: 2.1 K (antibody, human IgG1, kappa, V domains shown)
VH: QVTLKESGPALVKPTQTLTLTCTFSGFSLRTSGMGVGWIRQPPGKGLEWLAHIWWDDDKSYNPSLKSQLTISKDTSKNQVVLTMTNMDPVDTATYYCARRNYYYDDYFAYWGQGTTLTVSS
VL: DVLMTQSPLSLPVTLGQPASISCRSSQSIVHSNGNTYLEWYLQRPGQSPKLLIYKVSNRFSGVPDRFSGSGSGTDFTLKISRVEAEDVGVYYCFQGSHVPLTFGAGTKLEIKR
Turning to B9, in assay [2], the “EC50 of phagocytosis by IC-21 cells on human AD brain sections” value was 0.76 µg/mL. Besides, the “EC50 (µg/ml), ex vivo phagocytosis” value in assay [1] worked out at 0.84 µg/mL.

B10: 2.1 G K5 (antibody, human IgG1, kappa)
heavy: not shown
light: DIVMTQSPLSLPVTPGEPASISCRSSQSIVHSNGNTYLEWYLQKPGQSPRLLIYKVSNRFSGVPDRFSGSGSGTDFTLKISRVEAEDVGVYYCFQGSHVPLTFGGGTKVEIKRTVAAPSVFIFPPSDEQLKSGTASVVCLLNNFYPREAKVQWKVDNALQSGNSQESVTEQDSKDSTYSLSSTLTLSKADYEKHKVYACEVTHQGLSSPVTKSFNRGEC
notes: Humanized IgG
As to B10, the koff with human Aβ40 fibrils and with human Aβ42 fibrils was < 5e-05 s⁻¹ throughout. Further, the “EC50 (µg/ml), ex vivo phagocytosis” value in assay [1] turned out to be 1.78 µg/mL.

B11: 2.1 J (antibody, human IgG1, kappa, V domains shown)
VH: QVTLKESGPALVKPTQTLTLTCTFSGFSLRTSGMGVGWIRQPPGKALEWLAHIWWDDDKSYNPSLKSQLTISKDTSKNQVVLTMTNMDPVDTATYYCARRNYYYDDYFAYWGQGTLVTVSS
VL: DVVMTQSPLSLPVTLGQPASISCRSSQSIVHSNGNTYLEWFQQRPGQSPRRLIYKVSNRFSGVPDRFSGSGSGTDFTLKISRVEAEDVGVYYCFQGSHVPLTFGQGTKLEIKR
Turning to B11, the “EC50 (µg/ml), ex vivo phagocytosis” value in assay [1] turned out to be 1.22 µg/mL.

B12: 2.1 E K5 (antibody)
heavy: not shown
light: DVVMTQSPLSLPVTLGQPASISCRSSQSIVHSNGNTYLEWYLQKPGQSPRLLIYKVSNRFSGVPDRFSGSGSGTDFTLKISRVEAEDVGVYYCFQGSHVPLTFGGGTKVEIKRTVAAPSVFIFPPSDEQLKSGTASVVCLLNNFYPREAKVQWKVDNALQSGNSQESVTEQDSKDSTYSLSSTLTLSKADYEKHKVYACEVTHQGLSSPVTKSFNRGEC
notes: Humanized IgG
On to B12, for which the dissociation rate constant (koff) with human Aβ40 fibrils and in the assay with human Aβ42 fibrils was < 5e-05 s⁻¹ in each case. In addition, the “EC50 (µg/ml), ex vivo phagocytosis” value in assay [1] was found to be 3.94 µg/mL.
